Assay results reported in US11015206B2, “Compositions and methods comprising sequences having hydroxyphenylpyruvate dioxygenase (HPPD) activity” (PIONEER HI-BRED INTERNATIONAL, INC., priority 2014, dated 2021).
Residue numbers refer to the chain shown, from its start.

B1: P056028-G-02 (protein)
chain: MGPTPTATAAGAAVAAASAAEQAAFRLVGHRNFVRFNPRSDRFQTLAFHHVELWCADAASAAGRFSFALGVPLAARSDLSTGNSAHASLLLRSGSLSLLFTAPYAHGADAATAALPSFSAAAARRFAADHGLAVRAVALRVADAEDAFRASVAAGARPAFGPVDLGRGFRLAEVELYGDVVLRYVSYPDGAAGEPFLPGFEGVASPGAADYGLSRFDHIVGNVPELAPAAAYVAGFTGFHEFAEFTTEDVGTTESGLNSMALANNSENVLLPLNEPVHGTKRRSQIQTFLDHHGGPGVQHIALASDDVLRTLREMRARSAMGGFEFLPPPLSDYYDGVRRCAGDVLTEAQINECQELGVMVDRDDEGVLLQIFTKPVGDRPTFFLEIIQRIGCMEKDEKGQEYQKGGCGGFGKGNFGQLFKSIEDYEKSLEAKQAAAAATAQGS
modifications: Zea mays variant form created by artificial means.
B2: P056028-G-09 (protein)
chain: B1 chain with P158K, V233M, M394V
modifications: Zea mays variant form created by artificial means.
B3: SEQ ID NO 2 (protein)
chain: B1 chain with V233M, E366Q
modifications: Zea mays variant form created by artificial means.
B4: P056028-G-06 (protein)
chain: B1 chain with L182M, P206Q, S214N, V233M, R340K, I387L
modifications: Zea mays variant form created by artificial means.
B5: P056028-G-08 (protein)
chain: B1 chain with Y211L, V233M, R340K, E356K
modifications: Zea mays variant form created by artificial means.
B6: P056028-G-04 (protein)
chain: B1 chain with Y211L, V233M, L385I, I387L
modifications: Zea mays variant form created by artificial means.
B7: P056028-G-05 (protein)
chain: B1 chain with A191G, P206Q, Y211L, S214N, V233M, R340K, L385I, G417Q, Q434R
modifications: Zea mays variant form created by artificial means.
B8: P056028-G-07 (protein)
chain: B1 chain with P206Q, V233M, R340K, E356R
modifications: Zea mays variant form created by artificial means.
B9: SEQ ID NO 1 (protein)
chain: MGPTPTAAAAGAAVAAASAAEQAAFRLVGHRNFVRFNPRSDRFHTLAFHHVELWCADAASAAGRFSFGLGAPLAARSDLSTGNSAHASLLLRSGSLSFLFTAPYAHGADAATAALPSFSAAAARRFAADHGLAVRAVALRVADAEDAFRASVAAGARPAFGPVDLGRGFRLAEVELYGDVVLRYVSYPDGAAGEPFLPGFEGVASPGAADYGLSRFDHIVGNVPELAPAAAYFAGFTGFHEFAEFTTEDVGTAESGLNSMVLANNSENVLLPLNEPVHGTKRRSQIQTFLDHHGGPGVQHMALASDDVLRTLREMQARSAMGGFEFMAPPTSDYYDGVRRRAGDVLTEAQIKECQELGVLVDRDDQGVLLQIFTKPVGDRPTLFLEIIQRIGCMEKDEKGQEYQKGGCGGFGKGNFSQLFKSIEDYEKSLEAKQAAAAAAAQGS
modifications: Zea mays

Tests used:
Format in all cases: biochemical, Z. mays
[1] = system: 4-hydroxyphenylpyruvate dioxygenase (HPPD); test: Estimate of kcat from initial rate at saturating hydroxyphenylpyruvate without inhibitor (ON rate ratio assay)
In short: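 Reactions used 60 or 120 nM HPPD and saturating 100 μM hydroxyphenylpyruvate without inhibitor. kcat was estimated from the initial rate at the known enzyme concentration.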

[2] = system: 4-hydroxyphenylpyruvate dioxygenase (HPPD); test: ON rate ratio: HPPD reaction rate with vs without inhibitor in the 70 to 90 second interval; settings: for ON rate ratio: Table 7, tembotrione, combinatorial variants; for ON Rat. (ON ratio parameter): Megatable 2
In short: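 Time courses of HPPD reactions, 60 or 120 nM enzyme with 100 μM HPP substrate, run with and without 4 μM inhibitor (e.g. mesotrione, tembotrione). Value is the rate with inhibitor over rate without, taken over 70–90 s; higher ratio reflects slower kON.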

[3] = system: 4-hydroxyphenylpyruvate dioxygenase (HPPD); test: OFF rate ratio: release of inhibitor from pre-formed enzyme-inhibitor complex; settings: for OFF rate ratio: Table 7, tembotrione, combinatorial variants; for OFF Rat. (OFF ratio parameter): Megatable 2
In short: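 HPPD (7.2 μM) pre-incubated 1 h at RT with inhibitor (8 μM), then diluted into 25 mM Hepes pH 7, 2 mM ascorbate, 10 μM FeSO4, 100 μM HPP, 50 nM HGD; A320 followed 12 min. Ratio = steady-state rate with inhibitor over initial rate of inhibitor-free enzyme.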

[4] = system: 4-hydroxyphenylpyruvate dioxygenase (HPPD); test: Insensitivity parameter (ON × OFF) and trait fitness (ON × OFF × kcat/KM or × kcat); set-up: key to ON × OFF / Insensitivity, mesotrione, ON × OFF / Insensitivity, tembotrione, ON × OFF / Insensitivity, topramezone, ON × OFF / Insensitivity, sulcotrione, ON × OFF / Insensitivity, isoxaflutole (DKN), ON × OFF: insensitivity = ON rate ratio × OFF rate ratio (surrogate for KD); settings: for ON × OFF (product of ON ratio and OFF ratio) / ON × OFF kcat (product of ON ratio, OFF ratio and kcat) / Fold vs. wt (ON × OFF versus wild-type SEQ ID NO:1) / Fold vs. wt (ON × OFF × kcat versus wild-type SEQ ID NO:1): Megatable 2; for Fold vs. wt (ON × OFF versus wild-type SEQ ID NO:1): fold of ON × OFF; for Fold vs. wt (ON × OFF × kcat versus wild-type SEQ ID NO:1): fold of ON × OFF × kcat
In short: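 Calculated, not measured directly: ON rate ratio × OFF rate ratio gives an insensitivity parameter serving as a KD surrogate.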

[5] = Table 7, combinatorial variants
[6] = Table 7, tembotrione, combinatorial variants
[7] = Megatable 2, single substitutions, positions numbered per SEQ ID NO:1

Molecule	kcat ([1]; Megatable 3, shuffled variants) [s⁻¹]	kcat [1, 5] [s⁻¹]	ON rate ratio [2]	OFF rate ratio [3]	ON × OFF ([4]; Megatable 3, shuffled variants)	ON × OFF × kcat ([4]; Megatable 3, shuffled variants)	ON × OFF [4, 6]	ON × OFF × kcat [4, 6]	kcat [1, 7] [s⁻¹]	ON Rat. (ON ratio parameter) [2]	OFF Rat. (OFF ratio parameter) [3]	ON × OFF (product of ON ratio and OFF ratio) [4]	ON × OFF kcat (product of ON ratio, OFF ratio and kcat) [4]	Fold vs. wt (ON × OFF versus wild-type SEQ ID NO:1) [4]	Fold vs. wt (ON × OFF × kcat versus wild-type SEQ ID NO:1) [4]
B1	0.383	0.383	0.761	0.304	0.231	5.30	0.231	5.30							
B2	0.263	0.263	0.716	0.385	0.275	4.37	0.275	4.37							
B3									0.57	0.74	0.21	0.15	5.25	30.0	4.90
B4	0.2	0.2	0.725	0.382	0.277	3.30	0.277	3.30							
B5	0.197	0.197	0.737	0.379	0.279	3.29	0.279	3.29							
B6	0.227	0.227	0.752	0.248	0.186	2.54	0.186	2.54							
B7	0.278	0.278	0.739	0.361	0.267	4.47	0.267	4.47							
B8	0.255	0.255	0.702	0.304	0.213	3.23	0.213	3.23							
B9									3.5	0.17	0.03	0.0051	1.07	1.00	1.00
